For 1 sequence, binding results are on record in publication PMC9584953.

What all share (test): EMSA
What all share (conditions): EMSA: 50 mM Tris-HCl pH 7.5, 50 mM KCl, 5 mM CaCl2, 5% glycerol, 0.0025% NP-40, 0.8 ug poly(dI-dC), room temperature 30 min
A general note: A gel shift assay detects complexes by their altered migration in electrophoresis.

For data set [1], the system named is T1, OmpR R182D R182D (Salmonella (strain not given in material)), ORF:d8521a76.
T1 sequence: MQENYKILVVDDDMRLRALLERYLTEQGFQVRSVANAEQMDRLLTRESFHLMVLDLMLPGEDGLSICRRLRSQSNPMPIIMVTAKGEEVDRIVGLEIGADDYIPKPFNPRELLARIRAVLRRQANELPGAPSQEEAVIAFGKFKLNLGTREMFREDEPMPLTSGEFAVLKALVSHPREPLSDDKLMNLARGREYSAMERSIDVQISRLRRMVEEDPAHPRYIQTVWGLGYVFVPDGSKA

For data set [2], the system named is T2, OmpR D55A D55A (Salmonella (strain not given in material)), ORF:d8521a76.
T2 sequence: T1 sequence with D55A, D182R

Data set [3] relates to T3, OmpR Y230D Y230D (Salmonella (strain not given in material)), ORF:d8521a76.
T3 sequence: T1 sequence with D182R, Y230D

The subject of data set [4] is T4, OmpR I138D I138D (Salmonella (strain not given in material)), ORF:d8521a76.
T4 sequence: T1 sequence with I138D, D182R

The subject of data set [5] is T5, OmpR A136D A136D (Salmonella (strain not given in material)), ORF:d8521a76.
T5 sequence: T1 sequence with A136D, D182R

Substitutions are numbered along the chain they refer to.

“CATCTTTCCATTCAAACTAACGTTTCGCTACCGTGAAAGTGCTACAAAGATAAAGATTTGGTTTCAAAAGGAAAT (double strand) [PompF (F2 and F3 OmpR sites)]”: the binding entry is recorded as “binds” in data set [1]; “binds more weakly” in data set [2]; “binds” in data set [3]; “binds” in data set [4]; “binds” in data set [5].
